One block for each binder: values may come before it.
Target: T1, human CD127 (IL-7R), as used in the scFv binding experiments (human, UniProt P16871 21-239, limits assumed)
T1 construct: also called IL-7Ralpha; interleukin-7 receptor subunit alpha
T1 sequence: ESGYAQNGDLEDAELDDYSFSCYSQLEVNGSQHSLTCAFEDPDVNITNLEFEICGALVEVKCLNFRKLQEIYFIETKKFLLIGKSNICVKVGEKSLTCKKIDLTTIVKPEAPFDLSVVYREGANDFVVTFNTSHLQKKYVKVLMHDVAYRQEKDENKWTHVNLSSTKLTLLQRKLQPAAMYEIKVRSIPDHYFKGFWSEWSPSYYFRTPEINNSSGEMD
Test: scFv binding experiment, given as ED50; method and format not stated (FIG. 1A)

EC50: 3.32 µg/mL
B1: scFv703-Fc (VH-VL) (Fc fusion)
scFv: AVQLVESGGGLVQPGGSLKITCAASGFTFTNAAMYWVRQAPGKGLEWVARIRTKANNYATYYADSVKGRFTISRDDSKSTVYLQMDSVKTEDTATYYCIVVVLTTTRDYFDYWGQGVLVTVSSGGGGSGGGGSGGGGSDIVLTQSPSSLPVTPGEPASISCRSSQSLLTVKGITSLYWFLQKPGQSPKLLIYRMSNRDSGVPDRFSGSGSETDFTLKISRVEAEDVGTYYCAQFLEYPHTFGAGTKLELK
notes: The Fc is not described; also called scFv703HL; VH-VL scFv of OSE703; not shown: The Fc part implied by the name scFv703-Fc, and any hinge or linker to it

EC50: 0.539 µg/mL
B2: scFv703-Fc (VL-VH) (Fc fusion)
scFv: DIVLTQSPSSLPVTPGEPASISCRSSQSLLTVKGITSLYWFLQKPGQSPKLLIYRMSNRDSGVPDRFSGSGSETDFTLKISRVEAEDVGTYYCAQFLEYPHTFGAGTKLELKGGGGSGGGGSGGGGSAVQLVESGGGLVQPGGSLKITCAASGFTFTNAAMYWVRQAPGKGLEWVARIRTKANNYATYYADSVKGRFTISRDDSKSTVYLQMDSVKTEDTATYYCIVVVLTTTRDYFDYWGQGVLVTVSS
notes: The Fc is not described; also called scFv703LH; VL-VH scFv of OSE703; not shown: The Fc part implied by the name scFv703-Fc, and any hinge or linker to it

Reference: US20230087125A1 (Memorial Sloan Kettering, published 2023)
